Data published in the supplement of paper PMC10567573.

B1: SCARA5 (parent)
chain: VTEDLRLKDWEHSIALRNISLAKG

Variants of: B1
Test: protein stability index of a GFP-peptide fusion (GPS, HEK-293T) (PSI 1-6); higher = more stable
Conditions: c terminus: a fixed tail appended
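Further: lentivirally expressed fusions sorted by FACS into six bins by GFP to DsRed ratio, PSI derived from sequencing read proportions per bin multiplied by bin number.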

Variant | protein stability index
VTEDLRLKDWDHSIALRNISLAKG | 3.33
VTEDLRLKDWKHSIALRNISLAKG | 3.3
VTEDLRLKDWLHSIALRNISLAKG | 2.74
VTEDLRLKDWPHSIALRNISLAKG | 2.92
VTEDLRLKDWAHSIALRNISLAKG | 2.51
VTEDLRLKDWCHSIALRNISLAKG | 2.47
VTEDLRLKDWSHSIALRNISLAKG | 2.98
VTEDLRLKDWQHSIALRNISLAKG | 3.16
VTEDLRLKDWVHSIALRNISLAKG | 1.8
VTEDLRLKDWFHSIALRNISLAKG | 2.24
VTEDLRLKDWNHSIALRNISLAKG | 3.56
VTEDLRLKDWWHSIALRNISLAKG | 2.55
VTEDLRLKDWIHSIALRNISLAKG | 1.91
VTEDLRLKDWGHSIALRNISLAKG | 2.87
VTEDLRLKDWMHSIALRNISLAKG | 2.46
VTEDLRLKDWYHSIALRNISLAKG | 2.57
VTEDLRLKDWHHSIALRNISLAKG | 2.72
VTEDLRLKDWTHSIALRNISLAKG | 2.75
VTEDLRLKDEEHSIALRNISLAKG | 4.62
VTEDLRLKDIEHSIALRNISLAKG | 3.41
VTEDLRLKDDEHSIALRNISLAKG | 4.67
VTEDLRLKDMEHSIALRNISLAKG | 3.67
VTEDLRLKDKEHSIALRNISLAKG | 4.22
VTEDLRLKDHEHSIALRNISLAKG | 4.37

Variant | protein stability index
VTEDLRLKDREHSIALRNISLAKG | 4.45
VTEDLRLKDNEHSIALRNISLAKG | 4.26
VTEDLRLKDGEHSIALRNISLAKG | 4.63
VTEDLRLKDPEHSIALRNISLAKG | 4.41
VTEDLRLKDTEHSIALRNISLAKG | 4.26
VTEDLRLKDVEHSIALRNISLAKG | 4.14
VTEDLRLKDLEHSIALRNISLAKG | 3.55
VTEDLRLKDAEHSIALRNISLAKG | 4.28
VTEDLRLKDFEHSIALRNISLAKG | 3.12
VTEDLRLKDCEHSIALRNISLAKG | 4.11
VTEDLRLKDSEHSIALRNISLAKG | 4.39
VTEDLRLKDQEHSIALRNISLAKG | 4.29
VTEDLRLKDYEHSIALRNISLAKG | 3.62
VTEDLRLKDWEHSIAWRNISLAKG | 2.91
VTEDLRLKDWEHSIAFRNISLAKG | 3.1
VTEDLRLKDWEHSIARRNISLAKG | 3.4
VTEDLRLKDWEHSIASRNISLAKG | 4.21
VTEDLRLKDWEHSIANRNISLAKG | 4.12
VTEDLRLKDWEHSIAKRNISLAKG | 3.77
VTEDLRLKDWEHSIAHRNISLAKG | 3.45
VTEDLRLKDWEHSIAVRNISLAKG | 3.98
VTEDLRLKDWEHSIAARNISLAKG | 3.71
VTEDLRLKDWEHSIAERNISLAKG | 3.73
VTEDLRLKDWEHSIATRNISLAKG | 3.81

Variant | protein stability index
VTEDLRLKDWEHSIAIRNISLAKG | 3.42
VTEDLRLKDWEHSIAGRNISLAKG | 4
VTEDLRLKDWEHSIAMRNISLAKG | 3.45
VTEDLRLKDWEHSIAQRNISLAKG | 4.06
VTEDLRLKDWEHSIAYRNISLAKG | 3.14
VTEDLRLKDWEHSIAPRNISLAKG | 4.52
VTEDLRLKDWEHSIACRNISLAKG | 3.37
VTEDLRLKDWEHSIADRNISLAKG | 4.32
VTEDLRLKDWEESIALRNISLAKG | 3.84
VTEDLRLKDWETSIALRNISLAKG | 3.51
VTEDLRLKDWEYSIALRNISLAKG | 2.76
VTEDLRLKDWEASIALRNISLAKG | 3.2
VTEDLRLKDWEMSIALRNISLAKG | 2.77
VTEDLRLKDWEKSIALRNISLAKG | 3.61
VTEDLRLKDWEISIALRNISLAKG | 2.4
VTEDLRLKDWEDSIALRNISLAKG | 3.75
VTEDLRLKDWEWSIALRNISLAKG | 2.25
VTEDLRLKDWECSIALRNISLAKG | 2.62
VTEDLRLKDWEVSIALRNISLAKG | 2.44
VTEDLRLKDWEPSIALRNISLAKG | 3.29
VTEDLRLKDWEFSIALRNISLAKG | 2.28
VTEDLRLKDWESSIALRNISLAKG | 3.88
VTEDLRLKDWENSIALRNISLAKG | 3.7
VTEDLRLKDWEQSIALRNISLAKG | 3.43

Variant | protein stability index
VTEDLRLKDWERSIALRNISLAKG | 3.51
VTEDLRLKDWEGSIALRNISLAKG | 3.63
VTEDLRLKDWELSIALRNISLAKG | 2.38
VTEDLRLKDWEHSIALWNISLAKG | 2.26
VTEDLRLKDWEHSIALSNISLAKG | 3.77
VTEDLRLKDWEHSIALQNISLAKG | 3.21
VTEDLRLKDWEHSIALPNISLAKG | 3.56
VTEDLRLKDWEHSIALENISLAKG | 4.06
VTEDLRLKDWEHSIALVNISLAKG | 1.56
VTEDLRLKDWEHSIALINISLAKG | 2.07
VTEDLRLKDWEHSIALYNISLAKG | 2.58
VTEDLRLKDWEHSIALLNISLAKG | 1.8
VTEDLRLKDWEHSIALKNISLAKG | 3.38
VTEDLRLKDWEHSIALTNISLAKG | 3.19
VTEDLRLKDWEHSIALGNISLAKG | 3.62
VTEDLRLKDWEHSIALANISLAKG | 3.5
VTEDLRLKDWEHSIALNNISLAKG | 3.53
VTEDLRLKDWEHSIALCNISLAKG | 2.84
VTEDLRLKDWEHSIALDNISLAKG | 3.94
VTEDLRLKDWEHSIALFNISLAKG | 2.49
VTEDLRLKDWEHSIALHNISLAKG | 3.41
VTEDLRLKDWEHSIALMNISLAKG | 2.56
